Data: PMC9482650, “Quantitative fragmentomics allow affinity mapping of interactomes” (Nature Communications, 2022)

Assays:
Test in all cases: holdup assay
Parameters in all cases: key: below the threshold = too weak to quantify, mostly under pKd 3.1 to 4
Details in all cases: plain residues with an end cap or a label only (N-terminal biotin on a linker: ttds)
CNKSR3, Q6P9H4 = target: CNKSR3, Q6P9H4
GIPC1, O14908 = target: T1, GIPC1, O14908
T1 sequence (O14908 128-223, limits assumed, looked up): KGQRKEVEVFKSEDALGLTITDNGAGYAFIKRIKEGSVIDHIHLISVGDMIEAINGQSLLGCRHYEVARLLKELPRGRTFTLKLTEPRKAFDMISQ

GIPC3, Q8TF64 = target: GIPC3, Q8TF64
GRIP1_1, Q9Y3R0 = target: T2, GRIP1_1, Q9Y3R0
T2 sequence (Q9Y3R0 48-146, limits assumed, looked up): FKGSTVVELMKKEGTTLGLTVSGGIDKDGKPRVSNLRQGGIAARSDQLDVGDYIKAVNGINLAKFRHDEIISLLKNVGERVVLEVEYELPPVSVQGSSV

INTU, Q9ULD6 = target: T3, INTU, Q9ULD6
T3 sequence (Q9ULD6 180-273, limits assumed, looked up): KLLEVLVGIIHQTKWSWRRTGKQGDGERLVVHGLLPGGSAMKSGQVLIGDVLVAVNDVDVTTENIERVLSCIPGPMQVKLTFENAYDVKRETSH

MAGI1_4, Q96QZ7 = target: MAGI1_4, Q96QZ7
MAGI1_6, Q96QZ7 = target: MAGI1_6, Q96QZ7
MAGI2_1, Q86UL8 = target: T4, MAGI2_1, Q86UL8
T4 sequence (Q86UL8 12-111, limits assumed, looked up): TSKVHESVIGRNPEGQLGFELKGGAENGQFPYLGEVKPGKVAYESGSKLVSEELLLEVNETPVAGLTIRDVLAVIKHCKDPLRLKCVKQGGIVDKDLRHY

MAGI3_4, Q5TCQ9 = target: MAGI3_4, Q5TCQ9
MAGI3_6, Q5TCQ9 = target: MAGI3_6, Q5TCQ9
MAGIX, Q9H6Y5 = target: MAGIX, Q9H6Y5
MAST3, O60307 = target: MAST3, O60307
MPDZ_13, O75970 = target: T5, MPDZ_13, O75970
T5 sequence (O75970 1982-2070, limits assumed, looked up): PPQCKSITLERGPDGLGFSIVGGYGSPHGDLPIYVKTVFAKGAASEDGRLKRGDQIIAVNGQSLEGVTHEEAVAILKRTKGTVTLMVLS

PARD3B_3, Q8TEW8 = target: PARD3B_3, Q8TEW8
PARD3_1, Q8TEW0 = target: PARD3_1, Q8TEW0
PDLIM4, P50479 = target: PDLIM4, P50479
PDZD2_5, O15018 = target: T6, PDZD2_5, O15018
T6 sequence (O15018 2617-2716, limits assumed, looked up): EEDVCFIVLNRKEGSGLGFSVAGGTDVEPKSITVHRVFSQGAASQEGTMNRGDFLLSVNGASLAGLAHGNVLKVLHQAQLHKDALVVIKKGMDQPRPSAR

PDZD9, Q8IXQ8 = target: PDZD9, Q8IXQ8
PREX1_1, Q8TCU6 = target: PREX1_1, Q8TCU6
PTPN13_5, Q12923 = target: T7, PTPN13_5, Q12923
T7 sequence (Q12923 1877-1975, limits assumed, looked up): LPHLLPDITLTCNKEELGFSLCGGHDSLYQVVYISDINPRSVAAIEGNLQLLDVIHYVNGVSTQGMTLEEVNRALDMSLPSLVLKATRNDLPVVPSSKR

PTPN4, P29074 = target: T8, PTPN4, P29074
T8 sequence (P29074 512-599, limits assumed, looked up): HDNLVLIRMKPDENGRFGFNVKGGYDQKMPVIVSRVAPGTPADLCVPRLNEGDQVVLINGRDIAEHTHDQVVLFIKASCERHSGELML

SHANK3, Q9BYB0 = target: T9, SHANK3, Q9BYB0
T9 sequence (Q9BYB0 641-750, limits assumed, looked up): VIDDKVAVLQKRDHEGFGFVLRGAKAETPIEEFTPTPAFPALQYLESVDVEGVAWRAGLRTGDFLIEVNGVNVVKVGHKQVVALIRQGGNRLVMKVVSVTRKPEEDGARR

SHROOM3, Q8TF72 = target: T10, SHROOM3, Q8TF72
T10 sequence (Q8TF72 20-120, limits assumed, looked up): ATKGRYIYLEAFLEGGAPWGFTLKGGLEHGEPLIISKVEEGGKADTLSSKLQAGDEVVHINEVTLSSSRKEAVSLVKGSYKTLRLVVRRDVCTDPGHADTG

TJP1_1, Q07157 = target: TJP1_1, Q07157
USH1C_2, Q9Y6N9 = target: T11, USH1C_2, Q9Y6N9
T11 sequence (Q9Y6N9 206-303, limits assumed, looked up): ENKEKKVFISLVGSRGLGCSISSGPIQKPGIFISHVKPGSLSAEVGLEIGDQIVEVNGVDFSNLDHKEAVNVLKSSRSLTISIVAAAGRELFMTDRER

USH1C_3, Q9Y6N9 = target: T12, USH1C_3, Q9Y6N9
T12 sequence (Q9Y6N9 447-547, limits assumed, looked up): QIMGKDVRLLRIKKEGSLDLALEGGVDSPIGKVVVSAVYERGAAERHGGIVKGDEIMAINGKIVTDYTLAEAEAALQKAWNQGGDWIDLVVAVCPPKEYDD

Sequence of PDZD9, Q8IXQ8 (Q8IXQ8 23-120): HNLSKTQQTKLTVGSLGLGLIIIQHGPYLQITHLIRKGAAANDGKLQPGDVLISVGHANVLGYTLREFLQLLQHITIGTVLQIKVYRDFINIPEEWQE
Sequence of PARD3B_3, Q8TEW8 (Q8TEW8 490-594): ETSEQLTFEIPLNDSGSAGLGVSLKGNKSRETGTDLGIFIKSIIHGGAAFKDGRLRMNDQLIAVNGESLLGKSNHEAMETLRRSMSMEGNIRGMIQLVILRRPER
Sequence of PDLIM4, P50479 (P50479 1-83): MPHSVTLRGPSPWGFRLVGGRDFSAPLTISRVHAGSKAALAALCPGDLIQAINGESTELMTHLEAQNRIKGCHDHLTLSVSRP
Sequence of MAGI1_6, Q96QZ7 (Q96QZ7 1146-1238): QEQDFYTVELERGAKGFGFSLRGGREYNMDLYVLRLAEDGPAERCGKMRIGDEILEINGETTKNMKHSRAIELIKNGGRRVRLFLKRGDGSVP
Sequence of GIPC3, Q8TF64 (Q8TF64 107-202): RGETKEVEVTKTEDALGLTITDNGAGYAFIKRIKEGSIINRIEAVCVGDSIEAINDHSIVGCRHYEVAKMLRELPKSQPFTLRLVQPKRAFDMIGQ
Sequence of PARD3_1, Q8TEW0 (Q8TEW0 264-372): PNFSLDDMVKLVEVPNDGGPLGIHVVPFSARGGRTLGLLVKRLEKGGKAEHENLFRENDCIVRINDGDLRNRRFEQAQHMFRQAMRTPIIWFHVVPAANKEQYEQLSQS
Sequence of PREX1_1, Q8TCU6 (Q8TCU6 608-718): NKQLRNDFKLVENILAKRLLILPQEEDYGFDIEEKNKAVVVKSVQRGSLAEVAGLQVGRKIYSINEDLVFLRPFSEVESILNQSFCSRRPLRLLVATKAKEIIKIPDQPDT
Sequence of TJP1_1, Q07157 (Q07157 18-120): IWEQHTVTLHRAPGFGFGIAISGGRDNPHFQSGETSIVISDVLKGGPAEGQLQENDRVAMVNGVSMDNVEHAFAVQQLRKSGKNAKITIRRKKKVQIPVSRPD
Sequence of MAGI1_4, Q96QZ7 (Q96QZ7 other isoform, or with tags, fused parts or gaps): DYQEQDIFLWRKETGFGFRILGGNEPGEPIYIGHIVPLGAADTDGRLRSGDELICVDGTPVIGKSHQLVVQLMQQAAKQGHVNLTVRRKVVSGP
Sequence of CNKSR3, Q6P9H4 (Q6P9H4 203-303): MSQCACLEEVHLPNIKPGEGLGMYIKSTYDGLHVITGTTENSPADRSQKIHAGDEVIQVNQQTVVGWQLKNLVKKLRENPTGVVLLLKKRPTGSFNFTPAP
Sequence of MAGIX, Q9H6Y5 (Q9H6Y5 118-211): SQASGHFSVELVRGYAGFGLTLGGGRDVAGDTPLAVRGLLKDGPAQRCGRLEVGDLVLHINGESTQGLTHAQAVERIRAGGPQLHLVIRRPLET
Sequence of MAGI3_6, Q5TCQ9 (Q5TCQ9 1014-1103): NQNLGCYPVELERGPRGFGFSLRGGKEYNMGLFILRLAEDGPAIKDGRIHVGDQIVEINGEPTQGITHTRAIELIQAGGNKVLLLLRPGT
Sequence of MAST3, O60307 (O60307 945-1048): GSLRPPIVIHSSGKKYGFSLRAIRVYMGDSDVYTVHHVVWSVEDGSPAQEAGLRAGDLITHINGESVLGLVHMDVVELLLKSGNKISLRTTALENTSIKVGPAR
Sequence of MAGI3_4, Q5TCQ9 (Q5TCQ9 716-815): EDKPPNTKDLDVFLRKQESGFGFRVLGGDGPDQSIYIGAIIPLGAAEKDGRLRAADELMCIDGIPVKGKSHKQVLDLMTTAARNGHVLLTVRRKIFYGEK

Binder: PKTPPTDTSV [KIR3DL3, Q8N743]
- pKd (CNKSR3, Q6P9H4): below the threshold
- pKd (GIPC1, O14908): below the threshold
- pKd (GIPC3, Q8TF64): below the threshold
- pKd (GRIP1_1, Q9Y3R0): below the threshold
- pKd (INTU, Q9ULD6): below the threshold
- pKd (MAGI1_4, Q96QZ7): below the threshold
- pKd (MAGI1_6, Q96QZ7): 4.22
- pKd (MAGI2_1, Q86UL8): below the threshold
- pKd (MAGI3_4, Q5TCQ9): below the threshold
- pKd (MAGI3_6, Q5TCQ9): below the threshold
- pKd (MAGIX, Q9H6Y5): below the threshold
- pKd (MAST3, O60307): below the threshold
- pKd (MPDZ_13, O75970): below the threshold
- pKd (PARD3B_3, Q8TEW8): below the threshold
- pKd (PARD3_1, Q8TEW0): below the threshold
- pKd (PDLIM4, P50479): below the threshold
- pKd (PDZD2_5, O15018): below the threshold
- pKd (PDZD9, Q8IXQ8): below the threshold
- pKd (PREX1_1, Q8TCU6): below the threshold
- pKd (PTPN13_5, Q12923): below the threshold
- pKd (PTPN4, P29074): below the threshold
- pKd (SHANK3, Q9BYB0): below the threshold
- pKd (SHROOM3, Q8TF72): below the threshold
- pKd (TJP1_1, Q07157): below the threshold
- pKd (USH1C_2, Q9Y6N9): below the threshold
- pKd (USH1C_3, Q9Y6N9): below the threshold

Binder: QSARYRDTEL [TJP2, Q9UDY2]
- pKd (CNKSR3, Q6P9H4): below the threshold
- pKd (GIPC1, O14908): below the threshold
- pKd (GIPC3, Q8TF64): below the threshold
- pKd (GRIP1_1, Q9Y3R0): below the threshold
- pKd (INTU, Q9ULD6): below the threshold
- pKd (MAGI1_4, Q96QZ7): below the threshold
- pKd (MAGI1_6, Q96QZ7): 4.71
- pKd (MAGI2_1, Q86UL8): below the threshold
- pKd (MAGI3_4, Q5TCQ9): below the threshold
- pKd (MAGI3_6, Q5TCQ9): 4.72
- pKd (MAGIX, Q9H6Y5): below the threshold
- pKd (MAST3, O60307): below the threshold
- pKd (MPDZ_13, O75970): below the threshold
- pKd (PARD3B_3, Q8TEW8): below the threshold
- pKd (PARD3_1, Q8TEW0): below the threshold
- pKd (PDLIM4, P50479): below the threshold
- pKd (PDZD2_5, O15018): below the threshold
- pKd (PDZD9, Q8IXQ8): below the threshold
- pKd (PREX1_1, Q8TCU6): below the threshold
- pKd (PTPN13_5, Q12923): below the threshold
- pKd (PTPN4, P29074): 4.48
- pKd (SHANK3, Q9BYB0): below the threshold
- pKd (SHROOM3, Q8TF72): below the threshold
- pKd (TJP1_1, Q07157): below the threshold
- pKd (USH1C_2, Q9Y6N9): below the threshold
- pKd (USH1C_3, Q9Y6N9): below the threshold

Binder: STLTIFETAL [ABCC4, O15439]
- pKd (CNKSR3, Q6P9H4): below the threshold
- pKd (GIPC1, O14908): 4.1
- pKd (GIPC3, Q8TF64): 4.21
- pKd (GRIP1_1, Q9Y3R0): below the threshold
- pKd (INTU, Q9ULD6): below the threshold
- pKd (MAGI1_4, Q96QZ7): below the threshold
- pKd (MAGI1_6, Q96QZ7): 4.22
- pKd (MAGI2_1, Q86UL8): below the threshold
- pKd (MAGI3_4, Q5TCQ9): below the threshold
- pKd (MAGI3_6, Q5TCQ9): 4.21
- pKd (MAGIX, Q9H6Y5): below the threshold
- pKd (MAST3, O60307): 4.29
- pKd (MPDZ_13, O75970): below the threshold
- pKd (PARD3B_3, Q8TEW8): below the threshold
- pKd (PARD3_1, Q8TEW0): below the threshold
- pKd (PDLIM4, P50479): below the threshold
- pKd (PDZD2_5, O15018): below the threshold
- pKd (PDZD9, Q8IXQ8): below the threshold
- pKd (PREX1_1, Q8TCU6): below the threshold
- pKd (PTPN13_5, Q12923): below the threshold
- pKd (PTPN4, P29074): 4.97
- pKd (SHANK3, Q9BYB0): 5.54
- pKd (SHROOM3, Q8TF72): below the threshold
- pKd (TJP1_1, Q07157): below the threshold
- pKd (USH1C_2, Q9Y6N9): below the threshold
- pKd (USH1C_3, Q9Y6N9): below the threshold
